Test results reported in the supplement of paper PMC9170038.

Test system: MS2 coat protein
Assay: apparent KD of MS2 coat protein; designed switch direction (-1 OFF switch, 1 ON switch): -1; higher = weaker reporter binding
How it was run: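 RNA switches sharing common flanks were transcribed by stalled E. coli RNA polymerase on Illumina chips. A doubling series of SNAP-549-labelled MS2 coat protein, from 0.7 or 1.5 nM to 3 µM, was applied in Tris-HCl pH 7.5 buffer with KCl, MgCl2, BSA, DTT, tRNA and Tween-20. Each step lasted 0.8–1.5 h at the bottom of the series and 10–20 min at the top. Normalised cluster fluorescence was curve-fitted, giving apparent KD as the per-design median over clusters.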

[1] = Eterna round: R95, input ligand: microRNA oligo, concentration not stated
[2] = input ligand: microRNA oligo, concentration not stated
[3] = Eterna round: R95, input ligand: FMN 200 uM
[4] = Eterna round: R95, input ligand: none

Sequence | apparent KD of MS2 coat protein (input ligand: FMN 200 uM) | apparent KD of MS2 coat protein (input ligand: none) | apparent KD of MS2 coat protein [1] | other results
GAAUAGAGAGGAUAUGCAAUGAAGGUAGUACGAUAUGUCUGACAUGAGGAUCACCCAUGUAGAAGGCUCAGAUC [EX2 #9] (Eterna round: R97, puzzle: Exclusion 2) | 63.8 nM | 29.8 nM | – | –
GAAUAGGCAGGAUAUACAUGAGGAUCACCCAUGUGCCUGCGAAAGGUACGUUCGAAAGGUAGAAGGGCCUAAAC [ChP 13.04.2015 #6] (puzzle: Exclusion 3) | – | – | 12.2 nM | –
GAAUAGGCAGGAUAUACAUGAGGAUCACCCAUGUGCUUGCGAUCGGCAAGCGAACAACGUAGAAGGGCCUUAAC [ChP 13.04.2015 #13] (puzzle: Exclusion 3) | – | – | 15.8 nM | –
GAAUAGUGAGGAUAUACUUGCAGUGUACCUCGGGUGAUCUCACUUGAGGAUCACCCAAGUAGAAGGCGCGAGGG [EX2 #22] (Eterna round: R97, puzzle: Exclusion 2) | 20.8 nM | 9.03 nM | – | –
GAAUCGCAUGUUAGGAUAUAUCUGUCGGAGUAUGGAUAGAAGGGACAUGAGGAUCACCCAUGUGAAGGCCGUUC [Eternabot (L1) Solution 58] (Eterna round: R97, puzzle: Brourd's mod of Exclusion 4) | 210 nM | 90.1 nM | – | –
GAAUGAGAGCAGGAUAUCUUAUCAAUGUACGAAAGAGAAGGGCUCACAUGAGGAUCACCCAUGUGGUCCUAGAU [jl-ex6-4.66 jandersonlee mod] (Eterna round: R97, puzzle: Exclusion 6) | 576 nM | 78.8 nM | – | –
GACAUGAGGAUCACCCAUGUAAGGGAUGAACUUCUGGGUAGCUAGGAUAUGGCUACAAAUGUGGACCAGAAGGAGCAUACCCUA [Didianveon] (Eterna round: R96, puzzle: Exclusion NG 3) | 13 nM | 16.7 nM | – | apparent KD of MS2 coat protein [2]: 12.7 nM
GACCAGGUAGGAUAUGCAGGGUAGGACUUGAGGAUCACCCAAGUGGCCAAAGUGCGUCCCGCAGAAGGGCCGAACC [Teararatbi] (Eterna round: R97, puzzle: Exclusion 5) | 356 nM | 386 nM | – | –
GACCAGGUAGGAUAUGCAGGGUCGGACUUGAGGAUCACCCAAGUGGCCAAAGUGCGUCCCGCAGAAGGGCCGAAAA [Isisusge] (Eterna round: R97, puzzle: Exclusion 5) | 215 nM | 1230 nM | – | –
GACCCAAGUGUUAGGAUAUCCAGUCGUGGGACCAGGGAGAAGGAACAUGAGGAUCACCCAUGUAAAAUAGAAAC [Anti] (puzzle: Brourd's mod of Exclusion 4) | – | – | 22.3 nM | apparent KD of MS2 coat protein [3]: 137 nM; apparent KD of MS2 coat protein [4]: 22.3 nM
GACUGCUGAGGAUAUACAUGAGGAUCACCCAUGUGCUUCAGCAUCGAAAGAUGCAUUGGUAGAAGGUAGUAGUC [LRO-Excl3-06] (puzzle: Exclusion 3) | – | – | 10.9 nM | –
GACUGCUGAGGAUAUACAUGAGGAUCACCCAUGUGCUUCAGCUACGAAAGUAGCAUUGGUAGAAGGUAGUAGUC [LRO-Excl3-05] (puzzle: Exclusion 3) | – | – | 11.5 nM | –
GACUGCUGAGGAUAUACAUGAGGAUCACCCAUGUGCUUCAGUAUCGAAAGAUACAUUGGUAGAAGGUAGUAGUC [LRO-Excl3-07] (puzzle: Exclusion 3) | – | – | 11.1 nM | –
GACUGCUGAGGAUAUACAUGAGGAUCACCCAUGUGCUUCAGUAUCGAAAGAUACAUUGGUAGAAGGUGGUAGUC [LRO-Excl3-08] (puzzle: Exclusion 3) | – | – | 14.9 nM | –
GACUUCUCUGAGGAUAUUGCAUCACCCGAUCUAUAAGAAGGCAGAACAUGAGGAUCACCCAUGUGGGUUUCUAG [Bingo-Bango-27] (Eterna round: R97, puzzle: Exclusion 6) | 40.6 nM | 29.7 nM | – | –
GAGAAGGUAGGAUAUACGAAGAAAAAGGGUAGAAUAAUAACACAUGAGGAUCACCCAUGUAGAAGGACCAAGAG [Mat - Exclusion 2 - Mod of my Tesla design - D19] (puzzle: Exclusion 2) | – | – | 16.7 nM | apparent KD of MS2 coat protein [3]: 44.3 nM; apparent KD of MS2 coat protein [4]: 20.4 nM
GAGAAGGUAGGAUAUACGAAUAAAAAGGGUAGAAUAAGAACACAUGAGGAUCACCCAUGUAGAAGGACCAAGAG [Mat - Exclusion 2 - Mod of my Tesla design - D21] (puzzle: Exclusion 2) | – | – | 18.4 nM | apparent KD of MS2 coat protein [3]: 32.8 nM; apparent KD of MS2 coat protein [4]: 18.5 nM
GAGAAGGUAGGAUAUACGAAUAAAUAGGGUAGGAAGAAGACACAUGAGGAUCACCCAUGUAGAAGGACCAAGAG [Mat - Exclusion 2 - Mod of my Tesla design - D36] (puzzle: Exclusion 2) | – | – | 14.6 nM | apparent KD of MS2 coat protein [3]: 29.3 nM; apparent KD of MS2 coat protein [4]: 17.8 nM
GAGAAGUGAGGAUAUACGAUAAGGAUGAAAGGAAGGAAUGAGUAGAAGGCACAUGAGGAUCACCCAUGUAGAGU [JR_Exclu4_Sub079] (puzzle: Exclusion 4) | – | – | 25.1 nM | apparent KD of MS2 coat protein [3]: 24.1 nM; apparent KD of MS2 coat protein [4]: 26.3 nM

Sequence | apparent KD of MS2 coat protein (input ligand: FMN 200 uM) | apparent KD of MS2 coat protein (input ligand: none) | apparent KD of MS2 coat protein [1] | other results
GAGAAUUUAUAGGAUAUCGUAUGGAUAAUUUAACGAGAAGGAUGAACAUGAGGAUCACCCAUGUGGUAUCAUGG [JL-ex6-3.14] (puzzle: Exclusion 6) | – | – | 280 nM | apparent KD of MS2 coat protein [3]: 270 nM; apparent KD of MS2 coat protein [4]: 247 nM
GAGACGAAAGGAUAUACAUGAGGAUCACCCAUGUAUGAAACAUGAGAAGACACCGCUGGUAGAAGGUUUGGAAA [Eternabot (Original) Solution 46] (Eterna round: R97, puzzle: Exclusion 3) | 26.8 nM | 23.2 nM | – | –
GAGAGAAUCUAGGAUAUAUCAAGAGAAGGAGAGAUAGAAGGAGGGACAUGAGGAUCACCCAUGUCUUCGUGUAG [Default title] (Eterna round: R97, puzzle: Exclusion 6) | 15.6 nM | 16 nM | – | –
GAGAGCUGAGGAUAUACAUGAGGAUCACCCAUGUACCACCUUGCCGGCACAGAUCCUUGUAGAAGGCGGCUCUA [Eternabot (L2) Solution 57] (Eterna round: R97, puzzle: Exclusion 3) | 51.3 nM | 161 nM | – | –
GAGAUGUGAGGAUAUCUGGACCGUGGAAGAGCCACGGUCCGAGAGAAGGCACAUGAGGAUCACCCAUGUGAUGA [Inerusce] (puzzle: Exclusion 4) | – | – | 42.8 nM | –
GAGCCAUCGUGAGAUGGCUAAAUUACAUGAGGAUCACCCAUGUAGGAUAUCGAUUGCUUUGCAGUCGAGAAGGACAUGUUUAAU [JL ENG3 3.99] (Eterna round: R96, puzzle: Exclusion NG 3) | 67.5 nM | 32.9 nM | – | apparent KD of MS2 coat protein [2]: 27.8 nM
GAGCCAUCGUGAGAUGGCUAACAUACAUGAGGAUCACCCAUGUAGGAUAUCGAUUGCUUUGCAGUCGAGAAGGACAUGUUUAAU [JL ENG3 3.96] (Eterna round: R96, puzzle: Exclusion NG 3) | – | – | – | apparent KD of MS2 coat protein [2]: 19.1 nM
GAGCUGUGAGGAUAUACAUGAGGAUCACCCAUGUUAAGGAAGUGGUGAAUAAUUUAGUGUAGAAGGCACUUAUU [JR_Ex3_Sub023] (Eterna round: R97, puzzle: Exclusion 3) | 530 nM | 116 nM | – | –
GAGGACUGAGGAUAUGCGUUGGUACCUCGUAGUAAGCAAAGACAUGAGGAUCACCCAUGUAGAAGGCGGAAAAG [Xegeinenxe] (puzzle: Exclusion 2) | – | – | 58.6 nM | apparent KD of MS2 coat protein [3]: 150 nM; apparent KD of MS2 coat protein [4]: 52.6 nM
GAGGAGCAAGGAUAUACGAGGAUAUGGUAGGUUGGAGAGUGACAUGAGGAUCACCCAUGUAGAAGGUGCGAGGG [JR_Exclu2_Sub098] (puzzle: Exclusion 2) | – | – | 55.5 nM | –
GAGUAGGGAGGAUAUACGUGCUCAAUCCCGCGAAGCGGGAAACAUGAGGAUCACCCAUGUAGAAGGCCCAUAAA [Inceveus] (puzzle: Exclusion 2) | – | – | 171 nM | apparent KD of MS2 coat protein [3]: 88.4 nM; apparent KD of MS2 coat protein [4]: 185 nM
GAGUGACAUGAGGAUCACCCAUGUGAGGAUAUCGGACGGACCAAGUUAACAUCCGCCGCGAGAAGGCACAUCGG [Exclusion 1 V23] (puzzle: Exclusion 1) | – | – | 104 nM | –
GAGUGACAUGAGGAUCACCCAUGUGAGGAUAUCGGACGGACCUAGUUAACUUCCGCCGCGAGAAGGCACAUCGG [Exclusion 1 V23] (Eterna round: R96, puzzle: Exclusion 1) | 75.2 nM | 84 nM | – | apparent KD of MS2 coat protein [2]: 45.6 nM
GAGUGACAUGAGGAUCACCCAUGUGAGGAUAUCGGACGGACCUAGUUAACUUCCGCCGCGAGAAGGCACAUCGG [Exclusion 1 V23] (puzzle: Exclusion 1) | – | – | 70.2 nM | –
GAGUGACAUGAGGAUCACCCAUGUGAGGAUAUCGGACGGACCUAGUUAGCUUCCGCCGCGAGAAGGCACAUCGG [Exclusion 1 V24] (puzzle: Exclusion 1) | – | – | 63.1 nM | –
GAGUUAACAUGAGGAAUAUACAUGAGGAUCACCCAUGUUAACAAAUUUUUUGCUCGUCUUAUAACAACAAUUAACUC [Alarm 4 - Jieux - Sensor, turn-off variant 1] (Eterna round: R97, puzzle: Sensor, turn-off variant 1) | 434 nM | 206 nM | – | –
GAUAAACAUGAGGAUCACCCAUGUGAGGAUAUGCGUACGUUGUCCGUAGGCGACGUGCGCAGAAGGCGCAAGGU [Mat - Mod of JL D99] (puzzle: Exclusion 1) | – | – | 73 nM | –
GAUACACAUGAGGAUCACCCAUGUGAGGAUAUGCGUACGUUGUCCGUAGGCGACGUGCGCAGAAGGCGCUUGGU [Mat - Mod of JL D98] (puzzle: Exclusion 1) | – | – | 57.3 nM | –
GAUACACAUGAGGAUCACCCAUGUUAGGAUAUUAGCGGGAAAGCUGUCAAAACGCCGAUGAGAAGGAACAGGAG [Excls1-IX] (puzzle: Exclusion 1) | – | – | 31.9 nM | –
